Experimental data taken from patent publication US12194082B2, “Compositions and methods for treatment of homocystinuria” (THE REGENTS OF THE UNIVERSITY OF COLORADO, priority 2016, dated 2025).
Several values for one entry are separate records, joined by “and”; a condition that tells them apart may be missing. Equal entries are not always repeated.

What was measured:
[1] = test system: tHcy, cystathionine; test: Betaine, PEGC15S and combination treatment: transsulfuration metabolites; type: in vivo, HO mice
Procedure: (§1) Plasma metabolites homocysteine, cystathionine and cysteine were determined by stable-isotope-dilution liquid chromatography mass spectrometry as previously described in (Allen et al., 1993, Metabolism, 42: 1448-1460). Measurements of total non-protein bound homocysteine and other aminothiols as well as of amino acids in tissue were performed as described in (Maclean et al., 2010b. Mol. Genet. Metab. 101, 153-162). Metabolites were determined by stable-isotope-dilution liquid chromatography mass spectrometry.
The betaine and betaine+PEGC15S groups were treated with 2% betaine in the drinking water throughout the 18 days of the experiment, and the latter group was injected with 7.5 mg/kg PEGC15S on days 14 and 15. The PEGC15S single treatment group was maintained on regular water and injected on days 14 and 15 as well. […] The betaine single treatment group maintained these levels of tHcy to day 18. […] Thus, the combination of PEGC15S with betaine allows for maintaining lower tHcy levels for an extended period of time.

[2] = Pharmacokinetics of htCBS after a single dose (plasma CBS activity); type: in vivo, C57BL/6J mice; details: for observed peak plasma level: first 4 hours
Procedure: The pharmacokinetic properties of a pharmacologically active substance that is administered to circulation is greatly affected by natural mechanisms of ADME. Rapid clearance of the injected molecule may greatly impact treatment efficacy and thus longer circulating half-lives are desired, which may translate into less frequent administrations or smaller doses that in turn minimize the side effects. To determine the pharmacokinetics of htCBS in plasma circulation, a single dose of 5 mg/kg was injected via subcutaneous (SC), intravenous (IV) or intraperitoneal (IP) routes to C57BL/6J mice.

[3] = CBS enzyme activity assay, specific activity of pure enzyme; type: biochemical; details: PEGylated vs non-PEGylated htCBS
Procedure: CBS activity was determined by a radioisotope assay with C^14-labeled serine as a substrate. Ten μl (total 490 ng) of pure htCBS in dilution buffer (0.1 M Tris-HCl pH=8.6, 1 mM DTT, 10 μM PLP, 0.5 mg/ml BSA) or 10 μl of plasma were added to 85 μl of reaction mixture containing 0.1 M Tris-HCl pH=8.6, 10 mM L-serine, 0.5 mM PLP, 0.5 mg/ml BSA and 0.3 μCi (for pure enzyme) or 0.45 μCi (for plasma) of L-[C^14(U)]-Serine. Samples were incubated for 5 min at 37° C. and reaction was initiated by addition of 5 μl of 0.2 M Hcy (10 mM final concentration). Following 30 min of incubation at 37° C., a 20 μl aliquot of the assay mixture was applied onto a grade 3 CHR Whatman (NJ, USA) paper. Assay initiation and sampling of the resulting mixture were staggered so that each reaction time was 30 minutes. Descending paper chromatography was used to isolate the radioactive product (Cth) from a labeled substrate (Ser). The C^14-cystathionine formed in the reaction was separated from C^14-serine by an overnight descending paper chromatography in 2-propanol/formic acid/H2O (75:5.7:18.9 v/v). Radioactivity in the area of the marker cystathionine (detected by staining the marker lane with ninhydrin) was determined by cutting the chromatogram into strips that were submerged in 5 ml of Opti-fluor scintillation cocktail (PerkinElmer, MA, USA) and counted in a Beckman LS-3801 scintillation counter. An enzyme-free sample was used as a blank to monitor the background radioactivity that was then subtracted from each sample. For pure enzyme, specific activity values are expressed as enzyme units (the amount of enzyme that produces 1 μmol of cystathionine/hour) per mg of CBS, and for plasma samples as units per μl plasma.

[4] = htCBS activity during in vitro incubation in mouse plasma at 37° C.; type: in vitro ADME, wild type or HO mice
Procedure: The rapid decline in htCBS activity in vivo may be attributed to a facilitated clearance from circulation and may also be attributed to the loss of enzymatic activity of htCBS once introduced to the environment in circulation. To test the latter, htCBS was incubated in vitro in mouse plasma of wild type or HO mice at 37° C. for up to 96 hours, with activity measured every 24 hours. […] A modest 25% loss of activity was recorded after 96 hours of incubation.

[5] = test system: homocysteine, cystathionine and cysteine; test: Repeated administration of htCBS or PEGhtCBS: plasma and tissue metabolites; type: in vivo, HO mice; details: 5 mg/kg, 5 consecutive days on weeks 1 and 3
Procedure: as §1
This lack of metabolic modulation by non-PEGylated htCBS further confirms the necessity to modify htCBS by covalent attachment of polyethylene glycol molecules.
The long term effect of PEGhtCBS administration was monitored using HO mice. The PEGhtCBS enzyme was administered to 8 HO mice at a dose of 7.5 mg/kg, twice a week (Monday and Thursday) for the first two weeks, and then three times a week (Monday, Wednesday and Friday) for 6 weeks. Blood samples were collected 24 hours (Tuesday) and 72 hours (Monday) post injection (FIG. 4A-4C). […] Cystathionine and cysteine levels were positively influenced as well. […] In addition to analysis of plasma metabolites levels, liver, kidney and brain tissue samples from the injected mice were analyzed as well to determine the levels of non-protein bound homocysteine (free and disulfide-linked forms).

C[N+](C)(C)CC(=O)O [betaine, N,N,N-trimethylglycine]
decrease in tHcy ([1]; 14 days of 2% betaine in drinking water): 29% and 32%
cystathionine change ([1]; throughout the 18 days): did not result in an increase

htCBS: truncated recombinant human CBS (SEQ ID NO: 3) where the C-terminal regulatory region has been removed
AUC(0-t) (obs area) ([2]; 5 mg/kg IP): 932.4 mU-hr/μL
Bioavailability ([2]; 5 mg/kg IP): 92%
E Half-life ([2]; 5 mg/kg IP): 4.3 h
MRT (area) ([2]; 5 mg/kg IP): 7.9 h
cmax (obs) ([2]; 5 mg/kg IP): 75.9 Mu/μL
observed peak plasma level ([2]; 5 mg/kg IP): ≤ 76 mU/μL
AUC(0-t) (obs area) ([2]; 5 mg/kg IV): 1011 mU-hr/μL
E Half-life ([2]; 5 mg/kg IV): 2.7 h
MRT (area) ([2]; 5 mg/kg IV): 4.9 h
observed peak plasma level ([2]; 5 mg/kg IV): up to 123 mU/μL
AUC(0-t) (obs area) ([2]; 5 mg/kg SC): 500.9 mU-hr/μL
Bioavailability ([2]; 5 mg/kg SC): 50%
E Half-life ([2]; 5 mg/kg SC): 6.1 h
MRT (area) ([2]; 5 mg/kg SC): 9.5 h
cmax (obs) ([2]; 5 mg/kg SC): 34.5 Mu/μL
Specific Activity [3]: 1193
loss of activity in mouse plasma ([4]; after 96 hours): 25%
loss of activity in mouse plasma ([4]; up to 72 hours): no significant loss of activity
serum homocysteine levels [5]: no change
